Key:
Details in all cases: protein: recombinant;recombinant;recombinant; copies: 1;1;1; label: 5'-Cy3 on Oligo 2; 25 bp duplex; 5' overhang 35 nt on strand 1
CTC1;STN1 WT;TEN1 = CTC1;STN1 WT;TEN1 (human;human;human, UniProt Q2NKJ3;Q9H668;Q86WV5 1-1217;1-368;1-123, ||); test: EMSA; EMSA: 60 nM DNA, 35 mM Tris-HCl pH 7.5, 1 mM DTT, 100 ng/uL BSA, 50 mM KCl, 37 C, 5 min; 0.8% agarose, 1x TBE, 4 C
CTC1;STN1 S96D;TEN1 = CTC1;STN1 S96D;TEN1 (human;human;human, UniProt Q2NKJ3;Q9H668;Q86WV5 1-1217;1-368;1-123, |S96D|); test: EMSA; affinity comparable to WT-CST; EMSA: 60 nM DNA, 35 mM Tris-HCl pH 7.5, 1 mM DTT, 100 ng/uL BSA, 50 mM KCl, 37 C, 5 min; 0.8% agarose, 1x TBE, 4 C
CTC1;STN1 S96A;TEN1 = CTC1;STN1 S96A;TEN1 (human;human;human, UniProt Q2NKJ3;Q9H668;Q86WV5 1-1217;1-368;1-123, |S96A|); test: as above

Measured: binding result

Sequence of CTC1;STN1 S96A;TEN1 (Q2NKJ3 whole entry, chain 1 of 3): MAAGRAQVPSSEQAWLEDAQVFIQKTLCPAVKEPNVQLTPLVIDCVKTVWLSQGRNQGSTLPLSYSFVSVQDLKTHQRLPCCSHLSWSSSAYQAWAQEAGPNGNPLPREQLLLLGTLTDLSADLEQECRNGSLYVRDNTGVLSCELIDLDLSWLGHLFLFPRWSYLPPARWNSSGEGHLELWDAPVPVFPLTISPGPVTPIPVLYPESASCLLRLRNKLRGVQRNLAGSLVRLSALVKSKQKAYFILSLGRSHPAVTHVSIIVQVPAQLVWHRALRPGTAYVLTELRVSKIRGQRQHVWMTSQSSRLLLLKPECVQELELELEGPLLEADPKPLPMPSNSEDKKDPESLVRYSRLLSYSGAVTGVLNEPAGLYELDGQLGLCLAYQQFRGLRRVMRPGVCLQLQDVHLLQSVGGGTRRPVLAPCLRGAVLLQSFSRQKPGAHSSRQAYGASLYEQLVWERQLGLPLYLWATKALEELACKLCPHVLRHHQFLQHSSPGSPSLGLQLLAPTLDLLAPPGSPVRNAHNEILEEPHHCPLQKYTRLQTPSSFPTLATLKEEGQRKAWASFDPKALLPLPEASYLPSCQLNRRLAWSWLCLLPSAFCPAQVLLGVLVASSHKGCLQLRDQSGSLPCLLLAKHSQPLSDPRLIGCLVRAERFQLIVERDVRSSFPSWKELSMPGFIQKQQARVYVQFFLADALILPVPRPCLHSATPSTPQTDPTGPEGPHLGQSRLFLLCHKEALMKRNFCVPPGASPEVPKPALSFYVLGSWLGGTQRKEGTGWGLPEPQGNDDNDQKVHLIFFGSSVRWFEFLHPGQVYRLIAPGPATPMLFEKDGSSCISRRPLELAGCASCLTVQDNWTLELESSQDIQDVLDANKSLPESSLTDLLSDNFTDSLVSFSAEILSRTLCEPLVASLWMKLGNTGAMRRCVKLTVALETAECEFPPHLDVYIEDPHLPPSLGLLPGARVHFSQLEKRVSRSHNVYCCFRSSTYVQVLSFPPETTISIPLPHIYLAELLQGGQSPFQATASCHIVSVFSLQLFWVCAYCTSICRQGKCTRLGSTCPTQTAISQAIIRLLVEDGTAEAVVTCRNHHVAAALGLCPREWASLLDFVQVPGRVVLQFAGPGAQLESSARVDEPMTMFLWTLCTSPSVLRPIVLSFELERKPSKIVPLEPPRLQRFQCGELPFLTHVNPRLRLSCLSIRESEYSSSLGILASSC
Sequence of CTC1;STN1 S96A;TEN1 (Q9H668 whole entry S96A, chain 2 of 3): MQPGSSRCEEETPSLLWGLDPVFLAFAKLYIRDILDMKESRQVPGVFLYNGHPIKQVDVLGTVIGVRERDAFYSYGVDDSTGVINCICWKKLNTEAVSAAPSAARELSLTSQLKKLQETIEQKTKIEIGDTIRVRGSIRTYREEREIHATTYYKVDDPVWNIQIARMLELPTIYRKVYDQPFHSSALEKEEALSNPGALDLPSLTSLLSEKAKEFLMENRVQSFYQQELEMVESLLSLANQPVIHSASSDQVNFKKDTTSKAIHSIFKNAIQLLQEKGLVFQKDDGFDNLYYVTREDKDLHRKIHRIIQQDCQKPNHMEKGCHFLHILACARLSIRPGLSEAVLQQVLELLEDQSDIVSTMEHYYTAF
Sequence of CTC1;STN1 S96A;TEN1 (Q86WV5 whole entry, chain 3 of 3): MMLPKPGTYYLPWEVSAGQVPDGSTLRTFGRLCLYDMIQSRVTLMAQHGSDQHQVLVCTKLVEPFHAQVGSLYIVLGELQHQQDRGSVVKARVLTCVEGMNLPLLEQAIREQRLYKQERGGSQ
Sequence of CTC1;STN1 S96D;TEN1 (Q2NKJ3 whole entry, chain 1 of 3): as the sequence (Q2NKJ3 whole entry, chain 1 of 3) above
Sequence of CTC1;STN1 S96D;TEN1 (Q9H668 whole entry S96D, chain 2 of 3): as the sequence (Q9H668 whole entry S96A, chain 2 of 3) above, with A96D counted along it
Sequence of CTC1;STN1 S96D;TEN1 (Q86WV5 whole entry, chain 3 of 3): as the sequence (Q86WV5 whole entry, chain 3 of 3) above
Sequence of CTC1;STN1 WT;TEN1 (Q2NKJ3 whole entry, chain 1 of 3): as the sequence (Q2NKJ3 whole entry, chain 1 of 3) above
Sequence of CTC1;STN1 WT;TEN1 (Q9H668 whole entry, chain 2 of 3): as the sequence (Q9H668 whole entry S96A, chain 2 of 3) above, with A96S counted along it
Sequence of CTC1;STN1 WT;TEN1 (Q86WV5 whole entry, chain 3 of 3): as the sequence (Q86WV5 whole entry, chain 3 of 3) above

B1: Cy3-labeled 5' overhang DNA (Oligo 1 + Oligo 2) (mixed)
DNA 1: ACGCTGCCGAATTCTACCAGTGCCTTGCTAGGACATCTTTGCCCACCTGCAGGTTCACCC
DNA 2: GGGTGAACCTGCAGGTGGGCAAAGA
modifications: Oligo 1: phosphorothioate bonds at both ends (after nt 1-5 and as printed around the last 4 nt)
binds: all assays above

— publication PMC10689503, “CaMKK2 and CHK1 phosphorylate human STN1 in response to replication stress to protect stalled forks from aberrant resection”
